Results: PMC4601027, “Structural Analysis of the Pin1-CPEB1 interaction and its potential role in CPEB1 degradation” (Scientific Reports, 2015)
Several values for one entry are separate records, joined by “and”; a condition that tells them apart may be missing. Identical values can stand only once. Non-standard residues stand in square brackets, D forms with d. No end group written: not given here. pS = N[C@@H](COP(=O)(O)O)C(=O)O

Columns and labels:
full-length Pin1 [1] = biological target: T1, full-length Pin1 (UniProt Q13526 1-163); test: native MS; travelling wave ion mobility mass spectrometry (IM-MS), nano-electrospray; unbound full-length Pin1 or Pin1 with CPEB1 pS210, 30-50 μM, 20-50 mM NH4OAc pH 7.2; details: both partners purified
T1 construct: Pin1 (peptidyl-prolyl cis/trans isomerase), full length; WW domain, linker and PPIase (catalytic) domain; Uniprot Q13526 is printed for the WW construct; 15N-labelled for NMR; The vector has a TEV cleavage site; Monomer by IM-MS; also called Pin1 full-length; full-length Pin1 protein; source: recombinant; clone from Addgene (Dustin Maly's Lab) in pMCSG7

full-length Pin1 [2] = biological target: T1, full-length Pin1; test: ITC; nano ITC, 12 °C or 25 °C; 20 mM Tris-HCl pH 7.0, 130 mM NaCl; 10- to 15-fold concentrated peptide injected (16 x 3 μL) into 190 μL of protein at 150-200 μM; single-site fit, except Pin1 full-length with pS210; details: both partners purified

T1 sequence (Q13526 whole entry, the tested form may be a part): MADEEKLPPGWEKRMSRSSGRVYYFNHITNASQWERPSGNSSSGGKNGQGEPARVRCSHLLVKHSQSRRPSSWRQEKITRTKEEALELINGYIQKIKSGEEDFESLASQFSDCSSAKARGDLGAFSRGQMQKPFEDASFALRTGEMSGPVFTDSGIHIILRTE

Binder: RI[pS]PPLPF-NH2 [CPEB1 pS210 peptide]
- stoichiometry N (full-length Pin1 [1]): 1 ligands per Pin1 and 2 ligands per Pin1
- stoichiometry N (full-length Pin1 [2]): 0.85
